Positions count from the first letter of the chain named. In names and notes the source's numbering stands.
B1: KB_A12_HsTx1 R14A (antibody, V domains shown)
VH: EVQLVESGGGLVRPGGSLRLSCAASGFTFSSYAMSWVRQAPGKGLEWVSAISGSGGSTYYADSVKGRFTISRDNTKNSLYLQMTSLRADDTAFYYCVKDFGPGYGTGWFDYWGPGTLVTVSS
VL: QSVLTQPPSVSEAPRQRVTITCSGSSSNIGNNAVNWYQQLPGKAPKLLIYAAGRASCRTPKDCADPCAKETGCPYGKCMNRKCKCNRCANSGVSDRFSAAKSGTSASLAINGLRSEDEADYYCAAWDDSLNGYVFGTGTKLTVLG
B2: KB_A12_Odk2 short: truncated OdK2 in VL CDR2 of KB_A12, IgG (antibody, V domains shown)
VH: B1 VH
VL: QSVLTQPPSVSEAPRQRVTITCSGSSSNIGNNAVNWYQQLPGKAPKLLIYAAGRVKCRGSPQCIQPCKDAGMRFGKCMNGKCHCTPKANSGVSDRFSAAKSGTSASLAINGLRSEDEADYYCAAWDDSLNGYVFGTGTKLTVLG
B3: KB_A12_AnTx 2 M: AnTx N17A/F32T in VL CDR2 of KB_A12, IgG (antibody, V domains shown)
VH: B1 VH
VL: QSVLTQPPSVSEAPRQRVTITCSGSSSNIGNNAVNWYQQLPGKAPKLLIYAAGRQKECTGPQHCTNFCRKAKCTHGKCMNRKCKCTNCKANSGVSDRFSAAKSGTSASLAINGLRSEDEADYYCAAWDDSLNGYVFGTGTKLTVLG
B4: KB_A12_Odk2: OdK2 in VL CDR2 of KB_A12, IgG (antibody, V domains shown)
VH: B1 VH
VL: QSVLTQPPSVSEAPRQRVTITCSGSSSNIGNNAVNWYQQLPGKAPKLLIYAAGRGVPTDVKCRGSPQCIQPCKDAGMRFGKCMNGKCHCTPKANSGVSDRFSAAKSGTSASLAINGLRSEDEADYYCAAWDDSLNGYVFGTGTKLTVLG
B5: KB_A12_Vm24: Vm24 in VL CDR2 of KB_A12, IgG (antibody, V domains shown)
VH: B1 VH
VL: QSVLTQPPSVSEAPRQRVTITCSGSSSNIGNNAVNWYQQLPGKAPKLLIYAAGRAAAISCVGSPECPPKCRAQGCKNGKCMNRKCKCYYCANSGVSDRFSAAKSGTSASLAINGLRSEDEADYYCAAWDDSLNGYVFGTGTKLTVLG
B6: KB_A12_HsTx1 (antibody, V domains shown)
VH: B1 VH
VL: B1 VL with A68R
B7: KB_A12_ADWX1 short: truncated ADWX-1 in VL CDR2 of KB_A12, IgG (antibody, V domains shown)
VH: B1 VH
VL: B2 VL with R58K, G59H, P61R, I64L, Q65K, M78T

Molecular target: T1, human Kv1.1 (huKv1.1) (Homo sapiens, UniProt Q09470)
T1 construct: expressed in transfected cells; host or cells: Freestyle CHO-S
Test: QPatch automated patch-clamp, CHO-S cells expressing huKv1.1 (Examples 20-21)
Type: cell-based
Details: Table E21
Experimental: 1. The effect of these KnotBodies on cells expressing human Kv1.1 (huKv1.1) and Kv1.3 (huKv1.3) channels was assessed using QPatch automated patch-clamp platform (Sophion).
To generate huKv1.1 expressing cells, Freestyle CHO-S cells (Cat. no. R80007, Life Technologies, California, USA) were transfected with pINT50-Tr plasmid encoding huKv1.1 gene using the MaxCyte STX (MaxCyte) transfection system. In pINT50-Tr plasmid, huKv1.1 gene is under the control of a CMV promoter. 64 µg of the plasmid DNA were added to 400 µl of Freestyle CHO-S cells (at a density of 1 × 10^8 cells/ml) in Electroporation Buffer (GE Healthcare Life Sciences, Cat. no. EPB1) in an OC-400 processing assembly (MaxCyte). Following electroporation, the cells were transferred to a well of a 24-well plate containing 200 U/ml DNAse I (Sigma, D4263) and incubated for 20 minutes at 37° C. and 5% CO2. The cells were then transferred into a 100 ml shaker flask containing 20 ml of CD Opticho Media (Thermo Fisher Scientific, Cat.No 12681-011,) supplemented with 8 mM L-Glut (Thermo Fisher Scientific, cat. no. 25030-024). The cells were incubated for 24 hours at 37° C. and 5% CO2 (and 75% humidity and shaking at 800 rpm) prior to testing using automated patch clamp electrophysiology.
(§1) For the testing of Kv1.1 and Kv1.3, CHO-S expressing huKv1.1 (described above) or CHO cells stably expressing huKv1.3 (Charles River Lab) were analysed using the QPatch electrophysiology assay in the presence or absence of the KnotBody fusions. Internal and external physiological solutions were freshly prepared prior to the assay. The extracellular solution contained 145 mM NaCl, 4 mM KC1, 2 mM CaC12, 1 mM MgC12, 10 mM HEPES and 10 mM glucose; the pH was adjusted to 7.4 with NaOH; the osmolarity was ~ 305 mOsm/L. The intracellular solution contained: KF (120 mM), KC1 (20 mM), HEPES (10 mM) EGTA (10 mM); the pH was adjusted to 7.2 with KOH; osmolarity was ~ 300 mOsm/L.
(§2) A series of depolarising voltage (channel activating) pulses were used to monitor the channel currents upon adding control (extracellular solution) to define a control baseline of current activity. To these measured control currents four, ascending concentrations of KnotBodies (including previously described KB_A12_ShK and KB_A12_KTX described in Example 8) or parental antibody isotypes (control molecules) were applied to the external bathing solution. KnotBodies KB_A12 and KB_A07 (EETI-II fusions) were used as isotype controls for the testing. From a holding voltage of -80 mV a depolarising, activating voltage pulses of +30 were applied for 300 ms, every 10 seconds. The elicited, maximum outward current values measured during the activating step for each solution exchange period, averaged (n = 3 - 6 for each concentration applied) and plotted as concentration-response curves (see FIG. 33). From these concentration-response curves IC50 values were calculated (see Table E20).
(§3) For the testing of Kv1.1 and Kv1.3, CHO-S expressing huKv1.1 (see Example 20 and below) or CHO cells stably expressing huKv1.3 (Charles River Lab) were analysed using the QPatch electrophysiology assay in the presence or absence of the KnotBody fusions - see details in Examples 19 and 20.
In addition to the CHO-S transiently expressing huKv1.1 (described in Example 20), CHO-S cells with poly-clonal stable expression of huKv1.1 cells were also made and used in the QPatch electrophysiology assay. To generate the polyclonal stable huKv1.1 cells from the transiently expressing cells described in Example 20, after a 24 hour incubation period the selection antibiotic Puromycin (catalogue no. A1 1138-03, Life Technologies, California, USA) was added to culture media. Then, for the first 14 days puromycin was at 10 µg ml-1 media; at days 15-28 puromycin was at 20 µg ml-1 media. Cell cultures were seeded at 2.5 x 10^5 cells ml^-1 into fresh culture media and puromycin twice per week through this selection growth period. […]

T1 sequence (Q09470 whole entry): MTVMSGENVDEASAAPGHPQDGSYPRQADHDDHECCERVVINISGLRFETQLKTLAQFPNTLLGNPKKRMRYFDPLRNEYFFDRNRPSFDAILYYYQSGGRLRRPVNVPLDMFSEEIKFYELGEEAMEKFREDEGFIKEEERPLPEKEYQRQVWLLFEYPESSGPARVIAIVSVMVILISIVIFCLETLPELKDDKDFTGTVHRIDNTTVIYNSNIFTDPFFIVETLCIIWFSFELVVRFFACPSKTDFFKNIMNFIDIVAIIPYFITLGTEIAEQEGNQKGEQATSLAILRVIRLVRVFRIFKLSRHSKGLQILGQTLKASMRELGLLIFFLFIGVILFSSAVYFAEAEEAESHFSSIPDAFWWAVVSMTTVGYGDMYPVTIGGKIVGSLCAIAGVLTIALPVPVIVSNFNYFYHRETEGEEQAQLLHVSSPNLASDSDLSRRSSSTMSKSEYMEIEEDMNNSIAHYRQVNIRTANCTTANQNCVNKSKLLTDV

For B1, the IC50 was 2990 nM.

Same assay, conditions: four-point curves of FIG. 33, Table E20

Compared with B2, B3 is 27-fold higher in IC50: 380 nM for the first, 10300 nM for the second.

Going from B4 to B5, the IC50 falls from 2750 nM to 1220 nM (2.3-fold). The second is the more potent here.

Going from B6 to B7, the IC50 rises from 650 nM to 1400 nM (2.2-fold). The first is the more potent here.

Molecular target: T2, human Kv1.3 (huKv1.3) (Homo sapiens, UniProt P22001)
T2 construct: host or cells: CHO
Test: QPatch automated patch-clamp, CHO cells stably expressing human Kv1.3 (Examples 19-21)
Type: cell-based
Details: Kv1.1 IC50 over Kv1.3 IC50, Table E20
Experimental: The effect of these KnotBodies on cells expressing human Kv1.3 (huKv1.3) channel was assessed using the QPatch automated patch-clamp platform (Sophion, Ballerup, Denmark). For the testing of Kv1.3 ion channel currents, CHO cells stably expressing human Kv1.3 (GenBank accession number NM_002232.2; cell line catalogue number CT6133, Charles River Discovery, Cleveland, USA) were subjected to a QPatch electrophysiology assay in the presence or absence of the KnotBody fusions or the antibody isotypes (negative controls). Internal and external physiological solutions were freshly prepared prior to the assay. The extracellular solution contained 145 mM NaCl, 4 mM KC1, 2 mM CaC12, 1 mM MgC12, 10 mM HEPES and 10 mM glucose; the pH was adjusted to 7.4 with NaOH; the osmolarity was ~ 305 mOsm/L. The intracellular solution contained: KF (120 mM), KC1 (20 mM), HEPES (10 mM) EGTA (10 mM); the pH was adjusted to 7.2 with KOH; osmolarity was ~ 300 mOsm/L.
as §2, with “(including” for “(including previously described”, “KB_A12_KTX as previously” for “KB_A12_KTX”, “+30 mV” for “+30”, “32).” for “33).”, “calculated.” for “calculated (see Table E20).”
as §1, §2, §3

T2 sequence (P22001 whole entry): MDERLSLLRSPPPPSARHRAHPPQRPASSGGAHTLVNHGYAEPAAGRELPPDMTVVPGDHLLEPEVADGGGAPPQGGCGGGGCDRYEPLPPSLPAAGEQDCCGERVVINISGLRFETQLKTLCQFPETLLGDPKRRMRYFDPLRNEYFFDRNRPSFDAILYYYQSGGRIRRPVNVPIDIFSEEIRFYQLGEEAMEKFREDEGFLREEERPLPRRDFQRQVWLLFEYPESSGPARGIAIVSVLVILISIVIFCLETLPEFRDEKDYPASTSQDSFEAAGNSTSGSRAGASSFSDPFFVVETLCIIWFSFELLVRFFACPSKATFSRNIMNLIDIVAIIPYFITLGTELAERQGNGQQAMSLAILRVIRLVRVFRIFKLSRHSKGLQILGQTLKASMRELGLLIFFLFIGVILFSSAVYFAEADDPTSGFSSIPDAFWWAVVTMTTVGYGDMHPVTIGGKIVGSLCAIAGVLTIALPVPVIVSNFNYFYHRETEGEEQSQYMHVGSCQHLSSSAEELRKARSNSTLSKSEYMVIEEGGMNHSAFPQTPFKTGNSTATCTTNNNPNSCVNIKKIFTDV

Compared with B2, B3 is higher in Fold difference: 8 for the first, 94 for the second.

Going from B4 to B5, the Fold difference rises from 6 to 102.

Compared with B6, B7 is lower in Fold difference: 43 for the first, 6 for the second.

Same assay, conditions: Kv1.1 IC50 over Kv1.3 IC50, Table E21

In the case of B1, the Fold difference is reported as greater than 3500.

Same assay, conditions: Table E21; read-out: Kvl.3 IC50

In the case of B1, the IC50 is reported as 0.9 nM.

Same assay, conditions: four-point curves of FIG. 33, Table E20; read-out: Kv1.3 IC50

Going from B2 to B3, the IC50 rises from 49 nM to 110 nM (2.2-fold).

Compared with B4, B5 is 38-fold lower in IC50: 457 nM for the first, 12 nM for the second.

Compared with B6, B7 is 17-fold higher in IC50: 15 nM for the first, 251 nM for the second. The first is the more potent here.

Same assay, conditions: huKv1.3, four-point curves of FIG. 32, Table E19; read-out: IC50

B2 and B3 are within 1.5-fold of each other in IC50: 64 nM for the first, 85 nM for the second.

Going from B4 to B5, the IC50 falls from 222 nM to 16 nM (14-fold). The second is the more potent here.

Going from B6 to B7, the IC50 rises from 3.9 nM to 170 nM (44-fold). The first is the more potent here.

From patent US20230331827A1, “POTASSIUM CHANNEL INHIBITORS” (priority 2017, published 2023)
